Where two headings read alike, the source gives them in different places.
Key:
[1] = target: T1, native ubiquitin (monoubiquitin) (UniProt P0CG48 1-76); assay: stopped-flow fluorescence
[2] = target: T2, Ub-AMC (ubiquitin-7-amino-4-methylcoumarin) (human, UniProt P0CG48 1-75, 7-amino-4-methylcoumarin (AMC) on the C-terminal glycine); assay: other fluorescence titration
[3] = target: T2, Ub-AMC …; assay: stopped-flow fluorescence
[4] = target: T1, native ubiquitin (monoubiquitin); assay: stopped-flow fluorescence; remark: listed apart in the source
[5] = target: T2, Ub-AMC …; assay: stopped-flow fluorescence; remark: listed apart in the source

Binder | koff [1] | kon [1] | Kd [2] | Kd [3] | koff [4] | kon [4] | koff [5] | kon [5]
wild-type USP2 catalytic core (human ubiquitin-specific protease 2, amino acids 259 to 605) (domain or fragment, UniProt O75604 259-605, looked up) NSKSAQGLAGLRNLGNTCFMNSILQCLSNTRELRDYCLQRLYMRDLHHGSNAHTALVEEFAKLIQTIWTSSPNDVVSPSEFKTQIQRYAPRFVGYNQQDAQEFLRFLLDGLHNEVNRVTLRPKSNPENLDHLPDDEKGRQMWRKYLEREDSRIGDLFVGQLKSSLTCTDCGYCSTVFDPFWDLSLPIAKRGYPEVTLMDCMRLFTKEDVLDGDEKPTCCRCRGRKRCIKKFSIQRFPKILVLHLKRFSESRIRTSKLTTFVNFPLRDLDLREFASENTNHAVYNLYAVSNHSGTTMGGHYTAYCRSPGTGEWHTFNDSSVTPMSSSQVRTSDAYLLFYELASPPSRM | 2.64 ± 0.56 s⁻¹ | 400000 ± 10000 M⁻¹ s⁻¹ |  |  |  |  |  | 
C276A USP2 catalytic core (inactive active-site mutant) (domain or fragment, human, UniProt O75604 259-605, looked up) NSKSAQGLAGLRNLGNTAFMNSILQCLSNTRELRDYCLQRLYMRDLHHGSNAHTALVEEFAKLIQTIWTSSPNDVVSPSEFKTQIQRYAPRFVGYNQQDAQEFLRFLLDGLHNEVNRVTLRPKSNPENLDHLPDDEKGRQMWRKYLEREDSRIGDLFVGQLKSSLTCTDCGYCSTVFDPFWDLSLPIAKRGYPEVTLMDCMRLFTKEDVLDGDEKPTCCRCRGRKRCIKKFSIQRFPKILVLHLKRFSESRIRTSKLTTFVNFPLRDLDLREFASENTNHAVYNLYAVSNHSGTTMGGHYTAYCRSPGTGEWHTFNDSSVTPMSSSQVRTSDAYLLFYELASPPSRM |  |  | 2.9 ± 0.6 µM | 5.5 µM | 7.54 ± 2.6 s⁻¹ | 480000 ± 50000 M⁻¹ s⁻¹ | 1.82 ± 0.17 s⁻¹ | 330000 ± 20000 M⁻¹ s⁻¹
